We go through two variants from IntAct's records for PubMed 17428920.

B1: Insulin-induced gene 2 protein (Homo sapiens), Q9Y5U4 (parent)
chain: MAEGETESPGPKKCGPYISSVTSQSVNLMIRGVVLFFIGVFLALVLNLLQIQRNVTLFPPDVIASIFSSAWWVPPCCGTASAVIGLLYPCIDRHLGEPHKFKREWSSVMRCVAVFVGINHASAKVDFDNNIQLSLTLAALSIGLWWTFDRSRSGFGLGVGIAFLATVVTQLLVYNGVYQYTSPDFLYVRSWLPCIFFAGGITMGNIGRQLAMYECKVIAEKSHQE
partner: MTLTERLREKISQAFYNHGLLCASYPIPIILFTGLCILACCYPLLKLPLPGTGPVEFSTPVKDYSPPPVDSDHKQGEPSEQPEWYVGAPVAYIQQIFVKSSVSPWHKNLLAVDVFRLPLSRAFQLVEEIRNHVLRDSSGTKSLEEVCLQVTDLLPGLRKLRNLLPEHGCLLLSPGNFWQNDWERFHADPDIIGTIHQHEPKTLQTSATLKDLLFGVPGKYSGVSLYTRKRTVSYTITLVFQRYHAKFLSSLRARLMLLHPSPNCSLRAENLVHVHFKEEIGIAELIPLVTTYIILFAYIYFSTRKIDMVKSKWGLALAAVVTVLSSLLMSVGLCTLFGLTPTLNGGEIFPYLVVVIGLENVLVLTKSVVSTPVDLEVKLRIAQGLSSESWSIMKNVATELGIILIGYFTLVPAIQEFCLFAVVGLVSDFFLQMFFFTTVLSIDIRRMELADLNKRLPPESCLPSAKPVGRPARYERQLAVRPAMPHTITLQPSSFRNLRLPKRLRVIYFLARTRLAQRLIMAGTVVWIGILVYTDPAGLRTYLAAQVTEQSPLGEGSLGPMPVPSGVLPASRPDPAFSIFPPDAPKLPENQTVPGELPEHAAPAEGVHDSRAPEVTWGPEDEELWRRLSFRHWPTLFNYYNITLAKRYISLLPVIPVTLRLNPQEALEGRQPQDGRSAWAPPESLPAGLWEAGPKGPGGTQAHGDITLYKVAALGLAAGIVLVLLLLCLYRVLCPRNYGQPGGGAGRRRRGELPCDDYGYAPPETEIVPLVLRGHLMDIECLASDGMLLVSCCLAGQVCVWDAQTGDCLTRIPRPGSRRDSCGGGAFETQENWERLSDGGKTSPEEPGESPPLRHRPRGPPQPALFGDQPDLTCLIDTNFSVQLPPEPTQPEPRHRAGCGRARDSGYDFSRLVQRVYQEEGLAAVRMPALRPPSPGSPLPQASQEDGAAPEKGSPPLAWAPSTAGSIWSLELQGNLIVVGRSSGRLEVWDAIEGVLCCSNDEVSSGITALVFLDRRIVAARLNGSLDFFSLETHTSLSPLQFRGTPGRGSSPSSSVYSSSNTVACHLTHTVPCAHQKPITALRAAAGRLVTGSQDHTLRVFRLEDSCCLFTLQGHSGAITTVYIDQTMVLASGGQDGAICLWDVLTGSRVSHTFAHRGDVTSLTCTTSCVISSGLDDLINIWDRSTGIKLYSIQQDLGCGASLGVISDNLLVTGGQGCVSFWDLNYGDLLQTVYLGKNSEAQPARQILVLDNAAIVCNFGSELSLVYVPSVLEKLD

Variants of B1 are the subject of the assay. The settings on record: with scap_crigr SCAP.
Consider F115A, for which the “effect of a mutation on the interaction” value is on record as “disrupting interaction strength”.
The value for T136A was “decreasing interaction strength”.
